# Assay results from publication PMC11053944, “FRET Assays for the Identification of C. albicans HSP90-Sba1 and Human HSP90α-p23 Binding Inhibitors” (Pharmaceuticals, 2024).
# Values joined by “and” are separate entries in the source; they are usually repeats but may differ in a detail not shown here. Equal values may be shown once.
# B1: C. albicans HSP90 (without fluorescent protein) (natural protein)
# chain: not shown
# notes: HSP90 of C. albicans, UniProtKB P46598; Printed mass of the monomer 82.5 kDa, dimer 165 kDa; N-terminal His6 followed by an FXa site; also called His6-HSP90; source: E. coli BL21(DE3), purified (Ni-NTA, gel filtration)
# B2: C. albicans Sba1-mScarlet-I (natural protein, UniProt A0A1D8PQ94 1-221, looked up)
# chain: MSSTTTQTPTVLWAQRSSEDDAAKNIIYLTIQISDPIDLKIDLKSDHLIIDSKSNDSVYSSIDYHLQIDFFKEIDPDQSKINTENGSHIFMILRKKDQQEEYWPRLTKEKLKYHYIKTDFDKWVDEDEQDEVKDDPNDFGGPGGPGGAMDFSQMLSGMGGLGGAGGSGGPGGVDLSALASQLGQAGGAGGAAGLDGEEGEEGEAEAKEAQEESNTTATEKE
# notes: Sba1 of C. albicans, UniProtKB A0A1D8PQ94; mScarlet-I fused to the 3' end of Sba1, analogously to HSP90-mNeonGreen (there with a GGGGS linker); N-terminal His6 followed by an FXa site; also called His6-Sba1-mScarlet-I; source: E. coli BL21(DE3), purified (Ni-NTA, gel filtration); not shown: mScarlet-I, C-terminal, kept
# B3: C. albicans Sba1 (unlabeled) (natural protein, UniProt A0A1D8PQ94 1-221, looked up)
# chain: MSSTTTQTPTVLWAQRSSEDDAAKNIIYLTIQISDPIDLKIDLKSDHLIIDSKSNDSVYSSIDYHLQIDFFKEIDPDQSKINTENGSHIFMILRKKDQQEEYWPRLTKEKLKYHYIKTDFDKWVDEDEQDEVKDDPNDFGGPGGPGGAMDFSQMLSGMGGLGGAGGSGGPGGVDLSALASQLGQAGGAGGAAGLDGEEGEEGEAEAKEAQEESNTTATEKE
# notes: Sba1 of C. albicans, UniProtKB A0A1D8PQ94; N-terminal His6 followed by an FXa site; also called His6-Sba1; unlabeled Sba1; source: E. coli BL21(DE3), purified (Ni-NTA, gel filtration)
# B4: human p23 (unlabeled) (natural protein, UniProt Q15185 1-160, looked up)
# chain: MQPASAKWYDRRDYVFIEFCVEDSKDVNVNFEKSKLTFSCLGGSDNFKHLNEIDLFHCIDPNDSKHKRTDRSILCCLRKGESGQSWPRLTKERAKLNWLSVDFNNWKDWEDDSDEDMSNFDRFSEMMNNMGGDEDVDLPEVDGADDDSQDSDDEKMPDLE
# notes: human p23, UniProt Q15185; N-terminal His6 followed by an FXa site; also called His6-p23; unlabeled p23; source: E. coli Rosetta2(DE3) pLysS, purified (Ni-NTA, gel filtration)
# B5: human p23-mScarlet-I (natural protein, UniProt Q15185 1-160, looked up)
# chain: MQPASAKWYDRRDYVFIEFCVEDSKDVNVNFEKSKLTFSCLGGSDNFKHLNEIDLFHCIDPNDSKHKRTDRSILCCLRKGESGQSWPRLTKERAKLNWLSVDFNNWKDWEDDSDEDMSNFDRFSEMMNNMGGDEDVDLPEVDGADDDSQDSDDEKMPDLE
# notes: human p23, UniProt Q15185; Cloned by restriction-ligation on the basis of the C. albicans FRET plasmids (His6, FXa site, protein, mScarlet-I at the C-terminus); also called His6-p23-mScarlet-I; source: E. coli Rosetta2(DE3) pLysS, purified (Ni-NTA, gel filtration); not shown: mScarlet-I, C-terminal, kept
# Key:
# [1] = target: the molecule itself; experiment: cross-linking; glutaraldehyde cross-linking and SDS-PAGE (Coomassie): 10 µM HSP90 with equimolar Sba1 or mScarlet-I, reaction buffer, 15 min 30 °C, 5 mM ATP or 2 mM AMP-PNP; cross-linking 2 min at room temperature
# [2] = target: T1, C. albicans HSP90E36A-mNeonGreen (C. albicans, UniProt P46598 1-707, E36A); experiment: FRET or BRET; Kd determination, C. albicans: 200 nM HSP90E36A-mNeonGreen, Sba1-mScarlet-I 0-3000 nM (lowest non-zero 10 nM), reaction buffer with 5 mM ATP, 30 °C (text; the legend of Figure 2 says 37 °C), measured after 180 min; mNeonGreen control subtracted; nonlinear regression; details: both partners purified
# T1 construct: HSP90 of C. albicans, UniProtKB P46598, ATP-hydrolysis-defective mutant E36A; As m1 with E36A; GGGGS linker before mNeonGreen; also called His6-HSP90E36A-mNeonGreen; source: E. coli BL21(DE3), purified (Ni-NTA, gel filtration); not shown: mNeonGreen, C-terminal, kept
# [3] = target: T2, C. albicans HSP90-mNeonGreen (C. albicans, UniProt P46598 1-707); experiment: FRET or BRET; competition, C. albicans: 1 µM HSP90-mNeonGreen and 1 µM Sba1-mScarlet-I with unlabeled Sba1 0-25,000 nM (lowest non-zero 12 nM), reaction buffer with 5 mM ATP; relative IC50 (four parameters), Ki by One Site - Fit Ki; details: both partners purified
# T2 construct: HSP90 of C. albicans, UniProtKB P46598; pET-11d: N-terminal His6, FXa site, XhoI site, protein, KpnI site; mNeonGreen joined to the C-terminus of HSP90 by a flexible linker GGGGS; No cleavage of the His6 tag is told; also called His6-HSP90-mNeonGreen; source: E. coli BL21(DE3), purified (Ni-NTA, gel filtration); not shown: mNeonGreen, C-terminal, kept
# human HSP90α-mNeonGreen = target: T3, human HSP90α-mNeonGreen (human, UniProt P07900 1-732); experiment: FRET or BRET; competition, human: 1 µM HSP90α-mNeonGreen and 1 µM p23-mScarlet-I with unlabeled p23 0-50,000 nM (lowest non-zero 23 nM), reaction buffer with 5 mM ATP; relative IC50 (four parameters), Ki by One Site - Fit Ki; details: both partners purified
# T3 construct: human HSP90α, UniProt P07900; DNA from a plasmid of a previous work of the lab; Cloned by restriction-ligation on the basis of the C. albicans FRET plasmids (His6, FXa site, protein, mNeonGreen at the C-terminus); also called His6-HSP90α-mNeonGreen; source: E. coli Rosetta2(DE3) pLysS, purified (Ni-NTA, gel filtration); not shown: mNeonGreen, C-terminal, kept
# [4] = target: T4, human HSP90αE47A-mNeonGreen (human, UniProt P07900 1-732, E47A); experiment: FRET or BRET; Kd determination, human: 200 nM HSP90αE47A-mNeonGreen, p23-mScarlet-I 0-3000 nM (lowest non-zero 10 nM), reaction buffer with 5 mM ATP, 37 °C, measured after 180 min; mNeonGreen control subtracted; nonlinear regression; details: both partners purified
# T4 construct: human HSP90α, UniProt P07900, ATP-hydrolysis-defective mutant E47A; As m3 with E47A; also called His6-HSP90αE47A-mNeonGreen; source: E. coli Rosetta2(DE3) pLysS, purified (Ni-NTA, gel filtration); not shown: mNeonGreen, C-terminal, kept
binder,measurement,setting,value
B1,stoichiometry N,[1],2
B2,Kd,[2],100 nM
B3,IC50,[3],1950 nM
same,Ki,[3],100 nM
B4,IC50,human HSP90α-mNeonGreen,1420 nM
same,Ki,human HSP90α-mNeonGreen,100 nM
B5,Kd,[4],210 nM and 220 nM
